This note sets out measurements from patent US20150315248.

This data set deals with gelatin substrate.

B1: Dif153 (CD2830, hypothetical protein, zinc metallopeptidase), recombinant (protein)
chain: DSTTIQQNKDTLSQIVVFPTGNYDKNEANAMVNRLANIDGKYLNALKQNNLKIKLLSGKLTDEKEYAYLKGVVPKGWEGTGKTWDDVPGLGGSTVALRIGFSNKGKGHDAINLELHETAHAIDHIVLNDISKSAQFKQIFAKEGRSLGNVNYLGVYPEEFFAESFAYYYLNQDTNSKLKSACPQTYSFLQNLAK
Regarding B1, the “fluorimetric analysis of gelatin cleavage” value is “the recombinant protein has a weak gelatinase/collagenase activity in the presence of zinc, but not in the presence of nickel and copper or in the apo form”.
